In patent US20230147852A1 (SORRENTO THERAPEUTICS, published 2023):

Target: T1, Recombinant human LAG3-His (Sino Biological; catalogue No. 16498-H08H) (human, UniProt P18627 23-450)
T1 construct: also called human LAG3 His-tag protein; CD223
T1 sequence: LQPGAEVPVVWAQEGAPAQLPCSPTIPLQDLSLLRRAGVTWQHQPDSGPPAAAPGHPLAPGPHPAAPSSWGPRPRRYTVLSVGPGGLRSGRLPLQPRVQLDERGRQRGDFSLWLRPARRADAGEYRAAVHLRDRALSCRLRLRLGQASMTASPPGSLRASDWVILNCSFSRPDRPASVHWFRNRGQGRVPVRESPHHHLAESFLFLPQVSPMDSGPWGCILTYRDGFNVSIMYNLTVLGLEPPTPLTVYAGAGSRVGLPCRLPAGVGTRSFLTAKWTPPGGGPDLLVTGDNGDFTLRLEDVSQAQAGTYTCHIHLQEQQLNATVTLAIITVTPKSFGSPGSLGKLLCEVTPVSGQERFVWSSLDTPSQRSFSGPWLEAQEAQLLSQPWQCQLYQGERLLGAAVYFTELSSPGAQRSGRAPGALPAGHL
Test: ELISA: antibody coated at 5 µg/mL, soluble human LAG3-His titrated (x-axis: Human LAG3, µg/ml), OD at 450nm

B1: 2D12-2E3-N102D (antibody, V domains shown)
VH: EVQLVESGGGLVQPGRSLRLSCVASGDGMSDYDMHWVRQAPGKGLEWVSGIGWNSGTIDYADSVKGRFIISRDNAKNSLYLQMNSLRPEDTALYYCAKEILDYSWMSVYGMDVWGQGTTVTVSS
VL: DIQMTQSPSSLSASVGDRVTITCRASQNIGTYLNWYQQSPGKAPKLLIYGASSLHSGVPSRVSGSGSGTDFTLTINTLQPEDFATYFCQQSYNTPPTFGQGTKVEIK
notes: also called anti-LAG3 antibody 2D12-2E3-N102D
EC50 (read off the curve): ~0.04 µg/mL
